Test results as given in patent US8058396B2, “Cystatin C as an antagonist of TGF-β and methods related thereto” (National Jewish Health, priority 2003, dated 2011).

B1: CystC: full-length human Cystatin C (SEQ ID NO:2), C-terminally Myc- and (His)6-tagged, retrovirally expressed and secreted by the cells (protein, listed as Homo sapiens)
chain: MAGPLRAPLLLLAILAVALAVSPAAGSSPGKPPRLVGGPMDASVEEEGVRRALDFAVGEYNKASNDMYHSRALQVVRARKQIVAGVNYFLDVELGRTTCTKTQPNLDNCPFHDQPHLKRKAFCSFQIYAVPWQGTMTLSKSTCQDA
modifications: C-terminal Myc and His6 tags
B2: Δ14CystC: human CystC with deletion of positions 80 to 93 (conserved cysteine proteinase inhibitor motif), retrovirally expressed and secreted (protein)
chain: MAGPLRAPLLLLAILAVALAVSPAAGSSPGKPPRLVGGPMDASVEEEGVRRALDFAVGEYNKASNDMYHSRALQVVRARLGRTTCTKTQPNLDNCPFHDQPHLKRKAFCSFQIYAVPWQGTMTLSKSTCQDA
modifications: left off: small tags and cut ends

Legend:
HT1080 cells = test: Migration of HT1080 cells to fibronectin; type: cell-based, human; conditions: overexpression in HT1080 cells; data not shown
[1] = tested on: NMuMG mammary epithelial cells; test: TGF-β-mediated downregulation of E-cadherin in NMuMG cells; type: cell-based, murine; conditions: overexpression in NMuMG cells; TGF-β1 5 ng/ml, 36 hours
Procedure: (§1) The ability of TGF-β to alter actin cytoskeletal architecture and E-cadherin expression was monitored essentially as described (Piek et al., 1999). Briefly, control-, CystC-, or Δ14CystC-expressing NMuMG cells were allowed to adhere overnight to glass coverslips in 24-well plates (50,000 cells/well). The cells were stimulated the following day with TGF-β1 (5 ng/ml) for 0-36 hours at 37° C. In some experiments, control NMuMG cells were stimulated with TGF-β1 in the absence or presence of 10 μg/ml of recombinant GST, GST-CystC, or GST-Δ14CystC. Upon completion of agonist stimulation, the cells were washed in ice-cold PBS and immediately fixed in 3.7% formaldehyde. After extensive washing in PBS, the cells were blocked in PBS supplemented with 1.5% FBS, followed by incubation with rhodamine-phalloidin (0.25 μM). […]
The ability of TGF-β to alter E-cadherin expression also was monitored by immunoprecipitating E-cadherin from Buffer H/1% Triton X-100-solubilized (Schiemann et al., 2003) NMuMG whole cell extracts, followed by immunoblotting with anti-E-cadherin antibodies (1:1000 dilution).
(§2) To test this hypothesis, the inventor first examined whether CystC and a CystC mutant impaired in its ability to inhibit cathepsin protease activity (i.e., Δ14CystC) could antagonize TGF-β stimulation of EMT in MECs. […] TGF-β stimulation of EMT is studied routinely in murine NMuMG MECs, which readily undergo EMT when treated with TGF-β (Piek et al., 1999; Miettinen et al., 1994; Gotzmann et al., 2004). […] E-cadherin expression was monitored by indirect immunofluorescence with anti-E-cadherin antibodies.
In another experiment, NMuMG cells were infected with ecotropic retrovirus encoding either GFP (i.e., control), CystC, or Δ14CystC, and subsequently were isolated by FACS-sorting for GFP expression to yield stable polyclonal populations of control, CystC, and Δ14CystC-expressing cells. The expression and secretion of recombinant CystC proteins by infected NMuMG and NRK cells was monitored by immunoblotting conditioned-media with anti-CystC antibodies. […]

[2] = tested on: NMuMG mammary epithelial cells; test: TGF-β-stimulated actin cytoskeletal reorganization (EMT) in NMuMG cells, rhodamine-phalloidin immunofluorescence; type: cell-based, murine; conditions: overexpression in NMuMG cells; TGF-β1 5 ng/ml, 8 hours
Procedure: as §1, §2
In another experiment, NMuMG cells were infected with ecotropic retrovirus encoding either GFP (i.e., control), CystC, or Δ14CystC, and subsequently were isolated by FACS-sorting for GFP expression to yield stable polyclonal populations of control, CystC, and Δ14CystC-expressing cells. The expression and secretion of recombinant CystC proteins by infected NMuMG and NRK cells was monitored by immunoblotting conditioned-media with anti-CystC antibodies. […] Next, the control, CystC-, and Δ14CystC-expressing NMuMG cells were incubated in the absence or presence of TGF-β1 (5 ng/ml) for 36 hours, whereupon E-cadherin expression was monitored by immunoblotting with anti-E-Cadherin antibodies. […]

3T3-L1 fibroblasts = test: 3T3-L1 cell invasion through Matrigel matrices; type: cell-based, murine; conditions: retroviral expression in 3T3-L1 cells, 48 hr; for serum-stimulated (tonic) 3T3-L1 cell invasion: relative to GFP-expressing cells; for TGF-β1-stimulated 3T3-L1 cell invasion: TGF-β1 5 ng/ml, p<0.05
Procedure: The effect CystC and D14CystC on the invasion of HT1080 and 3T3-L1 cells was determined as described previously (42). Briefly, upper chambers were coated with 100 μl of diluted Matrigel (1:50 in serum-free media), which was allowed to evaporate to dryness overnight at room temperature. The following morning the Matrigel mixtures were rehydrated and subsequently cultured with control-, CystC-, or D14CystC-expressing HT1080 or 3T3-L1 cells at a density of 100,000 cells/chamber. Cellular invasion was stimulated by addition of 2% serum to the lower chambers. Forty-eight hr later, the cells were washed twice in ice-cold PBS and immediately fixed for 15 min with 95% ethanol. Cells remaining in the upper chambers were removed with a cotton swab, whereas those remaining in the lower chamber were stained with crystal violet. Quantifying invading cells was determined through two independent measures, which yielded identical results: (i) manual counting under a light microscope, and (ii) crystal violet dye extraction by incubation of the membranes in 10% acetic acid, followed by spectrophotometry at 590 nm.
In some experiments, the effects of recombinant CystC and D14CystC on 3T3-L1 cell invasion was examined. To do so, 3T3-L1 cells (100,000 cells/chamber) were allowed to invade through Matrigel […], together with or without 5 ng/ml of TGF-β1. All subsequent procedures were performed as described above.
GFP-, CystC-, or Δ14CystC-expressing 3T3-L1 cells were allowed to invade through Matrigel-coated filters in the absence or presence of TGF-β1 (5 ng/ml) for 48 hr, and the results are shown in FIG. 2A. […] Data are the mean (±SE) of four independent experiments presented as the percent invasion relative to GFP-expressing 3T3-L1 cells.
Moreover, the inhibitory effects of CystC on 3T3-L1 cell invasion could be recapitulated by addition of recombinant CystC fusion proteins. Control or TGF-β1-stimulated (5 ng/ml) 3T3-L1 cells were allowed to invade through Matrigel-coated filters for 48 hr in the absence or presence of recombinant (10 mg/ml) GST, GST-CystC, or GST-D14CystC as indicated in FIG. 2B. […] Data are the mean (±SE) of three independent experiments presented as the percent invasion relative to untreated 3T3-L1 cells. […] Collectively, these findings indicate that 3T3-L1 cell invasion proceeds through cathepsin B-dependent and TGF-β-dependent pathways.

Molecule	migration of HT1080 cells to fibronectin (HT1080 cells)	TGF-β-mediated downregulation of E-cadherin [1]	actin cytoskeletal reorganization stimulated by TGF-β [2]	serum-stimulated (tonic) 3T3-L1 cell invasion (3T3-L1 fibroblasts)	TGF-β1-stimulated 3T3-L1 cell invasion (3T3-L1 fibroblasts)
B1	failed to effect	antagonized	prevented	inhibited significantly	significantly inhibited
B2	failed to effect	antagonized	prevented	unaffected	significantly inhibited
